{"source": "paper PMC7085345", "about": "(The Biochemical journal, 2019)", "proteins": {"B1": {"name": "CYP2E1-BODIPY(1:2): N-terminally truncated (Δ3–20), C-terminally His-tagged CYP2E1 labeled with BODIPY 577/618 maleimide at 1:2 protein-to-label ratio (enzyme, human, UniProt P05181 1-493, looked up)", "chain": "MSSMWRQVHSSWNLPPGPFPLPIIGNLFQLELKNIPKSFTRLAQRFGPVFTLYVGSQRMVVMHGYKAVKEALLDYKDEFSGRGDLPAFHAHRDRGIIFNNGPTWKDIRRFSLTTLRNYGMGKQGNESRIQREAHFLLEALRKTQGQPFDPTFLIGCAPCNVIADILFRKHFDYNDEKFLRLMYLFNENFHLLSTPWLQLYNNFPSFLHYLPGSHRKVIKNVAEVKEYVSERVKEHHQSLDPNCPRDLTDCLLVEMEKEKHSAERLYTMDGITVTVADLFFAGTETTSTTLRYGLLILMKYPEIEEKLHEEIDRVIGPSRIPAIKDRQEMPYMDAVVHEIQRFITLVPSNLPHEATRDTIFRGYLIPKGTVVVPTLDSVLYDNQEFPDPEKFKPEHFLNENGKFKYSDYFKPFSTGKRVCAGEGLARMELFLLLCAILQHFNLKPLVDPKDIDLSPIHIGFGCIPPRYKLCVIPRS", "modifications": "BODIPY 577/618 maleimide on cysteines, two molar equivalents (presumably Cys488 and Cys261, Cys268 and/or Cys480)"}}, "assay_in_all_cases": "FRET or BRET", "key": {"FRET or BRET [1]": {"molecular_target": "the molecule itself"}, "FRET or BRET [2]": {"molecular_target": "the molecule itself", "remark": "listed apart in the source"}, "FRET or BRET [3]": {"molecular_target": "the molecule itself", "remark": "listed apart in the source"}, "FRET or BRET [4]": {"molecular_target": "the molecule itself", "remark": "listed apart in the source"}, "FRET or BRET [5]": {"molecular_target": "the molecule itself", "remark": "listed apart in the source"}}, "note": "Like-named read-outs stand apart in the source and are kept apart here."}
{"protein": "B1", "values": [{"measurement": "(Lipid/CYP2E1)50%", "setting": "FRET or BRET [1]", "value": 383, "unit": "lipid-to-P450 molar ratio"}, {"measurement": "(Lipid/CYP2E1)50%", "setting": "FRET or BRET [2]", "value": 2440, "unit": "lipid-to-P450 molar ratio"}, {"measurement": "(Lipid/CYP2E1)50%", "setting": "FRET or BRET [3]", "value": 4320, "unit": "lipid-to-P450 molar ratio"}, {"measurement": "(Lipid/CYP2E1)50%", "setting": "FRET or BRET [4]", "value": 5890, "unit": "lipid-to-P450 molar ratio"}, {"measurement": "(Lipid/CYP2E1)50%", "setting": "FRET or BRET [5]", "value": 393, "unit": "lipid-to-P450 molar ratio"}]}
